Measured values reported in US20060269557A1 (CITY OF HOPE, published 2006).
Numbering of substitutions follows the chain as printed. In names and notes the source's numbering stands.

Legend:
[1] = target: T1, soluble PSCA fused human IgG1 or mouse IgG2a Fc (UniProt O43653 12-86, limits assumed); test: competitive ELISA on coated PSCA-Fc, biotinylated mu1G8 as tracer
T1 construct: also called PSCA-Fc; not shown: human IgG1 Fc or mouse IgG2a Fc
T1 sequence (looked up): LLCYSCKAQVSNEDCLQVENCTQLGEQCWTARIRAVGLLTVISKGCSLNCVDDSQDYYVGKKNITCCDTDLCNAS
Protocol: (§1) The relative binding affinities of the antibodies were measured by competitive ELISA using biotinylated mu1G8 as tracer. Wells were coated with soluble PSCA fused human IgG1 or mouse IgG2a Fc that had been expressed in pEE12 as described above and purified by Protein A affinity chromatography (Poros2.0; PerkinElmer, Wellesley, Mass.). A fixed concentration of biotinylated parental antibody and increasing concentrations of non-biotinylated competitors were used as previously described (Olafsen 2004). Detection of biotinylated antibody was made with alkaline phosphatase-conjugated streptavidin (Jackson ImmunoResearch Laboratories).

[2] = target: T1, soluble PSCA fused human IgG1 or mouse …; test: relative binding affinity, competitive ELISA
Protocol: as §1

B1: murine monoclonal antibody 1G8 (antibody, V domains shown)
VH: EVQLQQSGAELVRSGASVKLSCTASGFNIKDYYIHWVNQRPDQGLEWIGWIDPENGDTEFVPKFQGKATMTADIFSNTAYLHLSSLTSEDTAVYYCKTGGFWGQGTLVTVSA
VL: QVVLTQSPAIMSASPGEKVTMACSASSSVRFIHWYQQKSGTSPKRWIYDTSKLASGVPTRFSGSGSGTSYSLTISTMEAEDAATYYCQQWSSSPFTFGSGTKLIIK
notes: Intact murine antibody from hybridoma; also called mu1G8; parental mu1G8
Kd [1]: ~5 nM

B2: humanized 1G8 antibody hu1G8-B (antibody, V domains shown)
VH: EVQLVESGGGLVQPGGSLRLSCAASGFNIKDYYIHWVRQAPGKGLEWVAWIDPENGDTEFVPKFQGRATISADTSKNTAYLQMNSLRAEDTAVYYCKTGGFWGQGTLVTVSS
VL: DIQLTQSPSSLSASVGDRVTITCSASSSVRFIHWYQQKPGKAPKRLIYDTSKLASGVPSRFSGSGSGTDFTLTISSLQPEDFATYYCQQWSSSPFTFGQGTKVEIK
notes: Labelled with 124I in the immunoreactivity assays; also called M6B; clone 2B3
fold higher relative binding affinity compared to hu1G8-A [2]: 6 fold | fold lower binding affinity than mu1G8 [2]: ~5 fold | Kd [1]: ~25 nM

B3: humanized 1G8 antibody hu1G8-A (antibody, V domains shown)
VH: B2 VH with V61A, P62D, K63S, F64V, Q65K, A68F
VL: B2 VL
notes: also called M6A
Kd [1]: ~150 nM
